Data: the nanobody polyreactivity screen of Harvey et al. (2022)

test: yeast display, Sf9 membrane polyspecificity reagent, FACS + sequencing; frameworks hold sequencing errors
Summary of the method: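 Synthetic nanobody libraries on Saccharomyces cerevisiae BJ5465 were galactose-induced for 36–48 hours, stained 1 hour at 4 °C with 10% biotinylated, detergent-solubilized Sf9 membrane reagent and enriched on streptavidin microbeads. FACS then separated cells into low and high (top ~1%) gates by anti-HA (expression) and streptavidin (reagent binding) fluorescence. Genes were colony-PCR amplified, MiSeq 2 × 250 sequenced and CDR-length filtered. A clone's polyreactivity label is that of its gate of origin.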

Sequence | polyreactivity (PSR sort gate)
QVQLVESGGGLVQAGGSLGLSCAASGYTFDHNAMGWYRQAPGKERELVAAINWSGGSTYYADSVKVRFTISRDNAKNTVYLQMKSLKPEDTAVYYCARYRVLASRVDYWGQGTQVTVSS | high polyreactivity
QVQLVESGGGLVQAGGSLGLSCAATGSIFNPYAMGWYRQAPGKVRELVAAISSTGSTYYADSVKGRFTISRDNAKNTVYLQMISLKPEDTAVYYCAADWYWYWFSTYDYWGQGTEVTVSS | low polyreactivity
QVQLVESGGGLVQAGGSLLLSCAASGFIFGPYALGWYRQAPGKERELVAAITWRGGRTYYADSVKGRFTISRDNAKNTVYLQMNSLKPEDTAVYYCAADYPYAMDYWGQGTQVTVSS | high polyreactivity
QVQLVESGGGLVQAGGSLLLSCAASGFIFPPYDMGWYRQAPGKEMELVAGISDVGTTYYADSVKGRFTISRDNAKNTVYLQMNSLKPEDTAVYYCAAESQGDDQFWTGGYDSWGQGTQVTVSS | low polyreactivity
QVQLVESGGGLVQAGGSLLLSCAASGGTFYYYAMGWYRQAPGKERELVASISSRGGSTYYADSVKGRFTISRDNAKNTVYLQMNSLKPEDTAVYYCAARSLYRGFGYWGQGTQVTVSS | high polyreactivity
QVQLVESGGGLVQAGGSLLLSCAASGGTFYYYTMGWYRQAPGKERELVAAISWSGGSTYYADSVKGRFTISRDNAKNTVYLQMNSLKPEDTAVYYCAALAYVSDYDYWGQGTQVTVSS | high polyreactivity
QVQLVESGGGLVQAGGSLLLSCAASGITFFTYAKGWYRQAPGKERELDAAISGSGGSTYYADSVKGRFTISRDNAKKTVYLQMNSLKPEDTAVYYCAAERENGDHYRYYYWGQGTQVTVSS | low polyreactivity
QVQLVESGGGLVQAGGSLLLSCAASGITFPKYAMGWYRQAPGKERELVAAITKSGGSTYYADSVKGRFTISRDHAKNTVYFQMNSLKPEDTAVYYYAARPRYGEYDYWGQGTQVTVSS | high polyreactivity
QVQLVESGGGLVQAGGSLLLSCAASGRTFAPYAMGWYRQAPGKERELVAAISSGGGNTYYADSVKGRFTISRDNAKITVYLHMNSLKPEDTAVYYCNAAQRRGGLGYSGQGTQVTVSS | high polyreactivity
QVQLVESGGGLVQAGGSLLLSCAASGSIFDFYGMGWDRQAPGKERELVATITGTGGGTYYADSVKGRFTISRDNAKNTVYLKMNSLKPEDTAVYYCAADYPYGYWRGLFYYWGQGTQVTVSS | low polyreactivity
QVQLVESGGGLVQAGGSLLLSCAASGSTCSYYAMGWYRQAPGKERQLVAAINRSGGSTYYADSVMGRFTISRDNAKNTVYVQMNSLKPEDTAVYSCAALRSKTVSYDRYDYWGQGTQVTVSS | high polyreactivity
QVQLVESGGGLVQAGGSLLLSCAASGSTFIWNAMGWYRQAHGKERELVAAISSGGSTYYADSVKGRFTISRDNAKNTVYLQMNSLKPEDTAVYYCAAEYVYNVWEQRYAVYSTDDYWGQGTQVTVSS | low polyreactivity
QVQLVESGGGLVQAGGSLLLSCAASGSTFNDNAMGWYRQAPGKERELVAAIDSGGITNYADSVKGRFTISRDNAKNTVYLQMNSLKPEDTAVYYCAVEGEYLTPSGRYRLDYWGQGTEVTVSS | low polyreactivity
QVQLVESGGGLVQAGGSLLLSCAASGSTFSFYAMGWYRQAPGKERELVAAIDSGGRTKYADSVKGRFTISRDNAKNTVYLQMNSLKPEDTAVYYCAAVFRGLWLYDYWGQGTQVTVSS | low polyreactivity
QVQLVESGGGLVQAGGSLLLSCAASGSTFVVNAMAWYRQAPGKERELVAAIRNSGSTTYADSVKGRFTISRDNAKNTVYLQMNSLKPEDTAVYYCATDISATVTAVQINPYDYWGQGSQVTVSS | low polyreactivity
QVQLVESGGGLVQAGGSLLLSCAASGSTFYKNAMGWYRQAPGKERELVAAISSGGSTYYADSVKGRFTISRDNAKNTVYLQMNSLKPEDTAVYYCAADYYYIVDYWGQGTQVTVSS | high polyreactivity
QVQLVESGGGLVQAGGSLLLSCAASGYIFWSNTMGWYRQAPGKERELVAAISQSTASTYYADSVKGRFTISRDNAKNTVYLQMNSLKPEDTAVYYCAAYYNFGDYEYDYWGQGTQVTVSS | low polyreactivity
QVQLVESGGGLVQAGGSLLLSCAPSGRTFPLNAMGWSRQAPGKERELVAAITWSGGRTYYADSVKGRFTISRDNAKNTVYLQMNSLKPEDTAVYYCAAKRTTWKIQSGYDYWGKGTQVTVSS | low polyreactivity
QVQLVESGGGLVQAGGSLLLSCDASGLTFGYYVMGWYRQAPGKERELVASITNGGGSTYYADSVKGRFTISRDYAKNTVYLQMNSLKPEDTAVYYCAAGSYLRKFDYWGQGTQVTVSS | high polyreactivity
QVQLVESGGGLVQAGGSLLLSCDASGNTFIENDMGWYIQAHGKERELVDPIDTGGYTYYADSVKGRFTISRDNAKNTVYLQMNSLKPDDTAVYYCTAVGLYLYRYKFGYLGKIGPGYDYWGQGTQVTVSS | low polyreactivity
QVQLVESGGGLVQAGGSLLLSSAPTGITFEGYSMGWSRQAPGKERELVAAIRSSGTSTYYADSVKGRFTISRDNAKNTVYLQMNSLKPDDTAVYYCNRARSSSRYDYWGQGTQVTVSS | low polyreactivity
QVQLVESGGGLVQAGGSLLLSWAASGRSFKYNAMGWDRQAPGKERELVAAISGSGGRTYYADSVKGRFTISRDNAKNTVYLQMNSLIPEDTAVYYCNARYVLYKPDYHRGGRMGYWGQGTQVTVSS | high polyreactivity
QVQLVESGGGLVQAGGSLPLSCAASGFISWGNAMGWSRQAPGKARELVAAISWRDARTYYADSVKGRFTISRDNAKNTVYLQMNSLKPEATAVYYCNAVTAYVSRNLGGYRWFDYWGQGTQVTVSA | low polyreactivity
QVQLVESGGGLVQAGGSLPLSCAASGRIFAFNVMGWYRQAPGKERELVAAISTRDGSTYYADSVKGRFTISRDNAKNTVYLQMNSLTPEDTAVYYCNAVVRYYDWGYWDYDYWGQGTQVTVSS | low polyreactivity
QVQLVESGGGLVQAGGSLPLSCAASGRIFSYYAMGRYRQAPGKERELVASISRSGGSTYYADSVKGRFTISRDNAKNTVYLQMISLKPEDTAVYYCAAYKYVRSYPYDYWGQGTQVTVSS | low polyreactivity
QVQLVESGGGLVQAGGSLPLSCAASGRTFLYNAMGWYRQAPGKERELVAAITKSGGSTYYADSVKGRFTISLDNAKNTVYLQMNTLKPEDTAVYYCAAARRYAYTGGYWGQGTQVTVSS | high polyreactivity
QVQLVESGGGLVQAGGSLPLSCAASGRTFWAYAMGWYRQAPGKERELVAAITTSGGSTNYADSVKGRFTISRDNAKNTVYLQMNSLKPEDTAVYYCNADPTYHVVNGVGYWGQGTQVTVSS | low polyreactivity
QVQLVESGGGLVQAGGSLPLSCAASGSIFDKYTMGWYRQAPGKERELVAAISRDSGSTYYADSVKGRFTISRDNAKNTVYLQMNSLKPEDTAVYYCAARLGYYGYDYWGQGTQVTVSS | low polyreactivity
QVQLVESGGGLVQAGGSLPLSCAASGSIYGANAQGWYRQAPGKERELVAAISSNGDDTYADSVKGRFTISRDNAKNTVYIQMNSLKPEDTAVYYCNKRPWWWGGDDYGGQGTQVTVSS | low polyreactivity
QVQLVESGGGLVQAGGSLPLSCAASGSTFKQNVMGWYIQAPGKERELVAAITSNDDRTYYADSVKGRFTISRDNAKNTFYLQMNSLKPEDTAVYYCAVESLRDVFEYDYWGQGTQVTVSS | low polyreactivity
